According to patent publication US7897569B2, “Use of HMGB fragments as anti-inflammatory agents” (The Feinstein Institute for Medical Research, priority 2001, dated 2011):

B1: A box: Human HMGB1 mutant containing only the A box, SEQ ID NO:21 (A box SEQ ID NO:22) (protein)
chain: MGKGDPKKPTGKMSSYAFFVQTCREEHKKKHPDASVNFSEFSKKCSERWKTMSAKEKGKFEDMAKADKARYEREMKTYIPPKGET
B2: B box: Human HMGB1 mutant containing only the B box, SEQ ID NO:20 (protein)
chain: FKDPNAPKRLPSAFFLFCSEYRPKIKGEHPGLSIGDVAKKLGEMWNNTAADDKQPYEKKAAKLKEKYEKDIAAY
B3: HMGB1: Recombinant full length human HMGB1, GST fusion system, SEQ ID NO:18; recombinant rat HMGB1 used in some experiments (protein)
chain: MGKGDPKKPTGKMSSYAFFVQTCREEHKKKHPDASVNFSEFSKKCSERWKTMSAKEKGKFEDMAKADKARYEREMKTYIPPKGETKKKFKDPNAPKRLPSAFFLFCSEYRPKIKGEHPGLSIGDVAKKLGEMWNNTAADDKQPYEKKAAKLKEKYEKDIAAYRAKGKPDAAKKGVVKAEKSKKKKEEEEDEEDEEDEEEEEDEEDEEDEEEDDDDE
modifications: GST fusion
notes: recombinant rat HMGB1 used in some experiments

How the values were obtained:
RAW 264.7 cells = assay: TNF release from RAW 264.7 cells (L929 cytotoxicity bioassay); assay type: cell-based, murine; details: for TNF release: 1 μg/ml protein, RAW 264.7 cells
Procedure: Murine macrophage-like RAW 264.7 cells (American Type Culture Collection, Rockville, Md.) were cultured in RPMI 1640 medium (Life Technologies, Grand Island N.Y.) supplemented with 10% fetal bovine serum (Gemini, Catabasas, Calif.), penicillin and streptomycin (Life Technologies) and were used at 90% confluence in serum-free Opti-MEM I medium (Life Technologies, Grand Island, N.Y.). […] Polymyxin B was not used in experiments of synthetic peptide studies.
TNF release was measured by a standard murine fibroblast L929 (ATCC, American Type Culture Collection, Rockville, Md.) cytotoxicity bioassay (Bianchi et al., Journal of Experimental Medicine 183:927-936, 1996) with the minimum detectable concentration of 30 pg/ml. Recombinant mouse TNF was obtained from R&D system Inc., (Minneapolis, Minn.). Murine fibroblast L929 cells (ATCC) were cultured in DMEM (Life Technologies, Grand Island, N.Y.) supplemented with 10% fetal bovine serum (Gemini, Catabasas, Calif.), penicillin (50 units/ml) and streptomycin (50 μg/ml) (Life Technologies) in a humidified incubator with 5% CO2.
The effect of the mutants on TNF release from Murine macrophage-like RAW 264.7 cells (ATCC) was carried out as follows. RAW 264.7 cells were cultured in RPMI 1640 medium (Life Technologies, Grand Island N.Y.) supplemented with 10% fetal bovine serum (Gemini, Catabasas, Calif.), penicillin and streptomycin (Life Technologies). Polymyxin (Sigma, St. Louis, Mo.) was added at 100 units/ml to suppress the activity of any contaminating LPS. Cells were incubated with 1 μg/ml of full length (wild-type) HMGB1 and each HMGB1 mutant protein in Opti-MEM I medium for 8 hours, and conditioned supernatants (containing TNF which had been released from the cells) were collected and TNF released from the cells was measured by a standard murine fibroblast L929 (ATCC) cytotoxicity bioassay (Bianchi et al., supra) with the minimum detectable concentration of 30 pg/ml. Recombinant mouse TNF was obtained from R & D Systems Inc., (Minneapolis, Minn.) and used as control in these experiments. Data in FIG. 1 are all presented as mean+SEM unless otherwise indicated. (N=6-10).
To further examine the effect of HMGB1 B box on cytokine production, varying amounts of HMGB1 B box were evaluated for the effects on TNF, IL-1 B, and IL-6 production in murine macrophage-like RAW 264.7 cells. Conditioned media were harvested and measured for TNF, IL-1β and IL-6 levels. TNF levels were measured as described herein, and IL-1β and IL-6 levels were measured using the mouse IL-1β and IL-6 enzyme-linked immunosorbent assay (ELISA) kits (R&D System Inc., Minneapolis, Minn.) and N>5 for all experiments.
The kinetics of B box-induced TNF release was also examined. TNF release and TNF mRNA expression was measured in RAW 264.7 cells induced by B box polypeptide or GST tag polypeptide only used as a control (vector) (10 μg/ml) for 0 to 48 hours. Supernatants were analyzed for TNF protein levels by an L929 cytotoxicity assay (N=3-5) as described herein. For mRNA measurement, cells were plated in 100 mm plate and treated in Opti-MEM I medium containing B box polypeptide or the vector alone for 0, 4, 8, or 24 hours, as indicated in FIG. 2D. The vector only sample was assayed at the 4 hour time point. Cells were scraped off the plate and total RNA was isolated by RNAzol B method in accordance with the manufacturer's instructions (Tel-Test “B”, Inc., Friendswood, Tex.). TNF (287 bp) was measured by RNase protection assay (Ambion, Austin, Tex.). Equal loading and the integrity of RNA was verified by ethidium bromide staining of the RNA sample on agarose-formaldehyde gel. […] TNF mRNA expression was maximal at 4 hours and decreased at 8 and 24 hours. […] A similar study was carried out measuring TNF protein released from RAW 264.7 cells 0, 4, 8, 24, 32 or 48 hours after administration of B box or vector only (GST tag), using the L929 cytotoxicity assay described herein. […] Data are representative of three separate experiments. […]

[1] = target: T1, human Toll-like receptor 4 (TLR4) (Homo sapiens, UniProt O00206); assay: CD25 expression in CHO/TLR2 and CHO/TLR4 ELAM-CD25 reporter cells (flow cytometry); assay type: cell-based; details: CHO/TLR4 cells versus CHO/TLR2; HMG-1 100 ng/ml or B box 10 μg/ml, 18 hours
T1 construct: expressed in transfected cells; host or cells: CHO (CHO/TLR4, ELAM-CD25 reporter)
T1 sequence (O00206 24-839): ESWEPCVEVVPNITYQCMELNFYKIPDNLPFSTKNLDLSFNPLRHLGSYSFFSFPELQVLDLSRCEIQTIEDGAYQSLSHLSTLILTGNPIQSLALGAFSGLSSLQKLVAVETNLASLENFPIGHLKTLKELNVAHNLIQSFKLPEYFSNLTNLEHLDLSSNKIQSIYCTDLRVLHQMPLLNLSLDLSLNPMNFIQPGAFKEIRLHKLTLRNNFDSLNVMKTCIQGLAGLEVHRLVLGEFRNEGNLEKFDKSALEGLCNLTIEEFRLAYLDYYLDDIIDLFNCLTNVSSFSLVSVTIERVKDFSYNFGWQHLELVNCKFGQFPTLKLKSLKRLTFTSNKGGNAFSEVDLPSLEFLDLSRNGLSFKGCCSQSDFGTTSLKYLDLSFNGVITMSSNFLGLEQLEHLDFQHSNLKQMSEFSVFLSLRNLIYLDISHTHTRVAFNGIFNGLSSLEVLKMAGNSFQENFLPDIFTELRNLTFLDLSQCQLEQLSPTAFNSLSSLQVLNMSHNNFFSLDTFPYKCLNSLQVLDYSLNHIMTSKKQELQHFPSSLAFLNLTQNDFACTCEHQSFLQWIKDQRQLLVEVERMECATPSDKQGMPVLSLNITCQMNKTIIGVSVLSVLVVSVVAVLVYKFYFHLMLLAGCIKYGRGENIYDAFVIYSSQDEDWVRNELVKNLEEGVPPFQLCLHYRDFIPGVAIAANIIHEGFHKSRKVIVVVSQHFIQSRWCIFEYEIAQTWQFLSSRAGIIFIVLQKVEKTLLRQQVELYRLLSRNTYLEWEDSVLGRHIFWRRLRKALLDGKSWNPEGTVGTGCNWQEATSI
Procedure: The effect of HMGB1 or HMGB1 B box on NF-kB activation was also examined. CHO reporter cell lines that constitutively express human Toll-like receptor 2 (TLR2) or Toll-like receptor 4 (TLR4) have been previously described (Means et al., J. Immunology, 163:3920-3927, 1999). These reporter lines also contain a stably transfected ELAM-CD25 reporter gene, and express human CD25 on their surface as a consequence of NF-kB activation. CHO/TLR2 and CHO/TLR4 cells were stimulated with IL-1 (10 ng/ml), purified full-length HMG-1 (100 ng/ml), or purified B box (10 μg/ml) for 18 hours. Following stimulation, cells were stained with a PE-labeled anti-CD25 monoclonal antibody and surface expression of CD25 was measured by flow cytometry. The results of this study are shown ib FIG. 11C. Data are expressed as the ratio (fold-activation) of the percent of CD25^+ cells in unstimulated and stimulated cell populations that were gated to exclude the lowest 5% of cells based on mean FL1 fluorescence.

[2] = test system: NF-kB-dependent ELAM promoter; assay: NF-kB-dependent ELAM promoter luciferase reporter in RAW 264.7 macrophages; assay type: cell-based, murine; details: HMGB1 100 ng/ml or B box 10 μg/ml, 5 hours; for level of luciferase stimulation: co-transfected with MyD 88 dominant negative
Procedure: To examine the effects of HMGB1 or HMGB1 B Box on the NF-kB-dependent ELAM promoter, the following experiment was carried out. RAW 264.7 macrophages were transiently co-transfected with an expression plasmid encoding a murine MyD 88-dominant-negative (DN) mutant (corresponding to amino acids 146-296), or empty vector, plus a luciferase reporter plasmid under the control of the NF-kB-dependent ELAM promoter, as described by Means et al. (J. Immunol. 166:4074-4082, 2001). A portion of the cells were then stimulated with full-length HMBG1 (100 ng/ml), or purified HMGB1 B box (10 μg/ml), for 5 hours. Cells were then harvested and luciferase activity was measured, using standard methods. All transfections were performed in triplicate, repeated at least three times, and a single representative experiment is shown in FIG. 11B.

| Molecule | TNF release (RAW 264.7 cells; 8 hours) | CD25 expression [1] | TNF protein expression compared to medium only (RAW 264.7 cells; 10 μg/ml, 0-48 hours) | time of maximum TNF protein release (RAW 264.7 cells; 10 μg/ml, 0-48 hours) [h] | TNF release, dose dependence (RAW 264.7 cells; B box 0-10 μg/ml, 8 hours) | level of luciferase stimulation [2] | luciferase activity ([2]; not co-transfected with MyD 88 dominant negative) |
| --- | --- | --- | --- | --- | --- | --- | --- |
| B1 | only weakly activated TNF release | – | – | – | – | – | – |
| B2 | potent activator of monocyte TNF release | decreased CD25 expression compared to the CHO/TLR2 samples | stimulated TNF protein expression | ≤ 8 | increased with increased amounts of B box | This effect was also observed | – |
| B3 | significantly stimulated TNF release | decreased CD25 expression compared to the CHO/TLR2 samples | – | – | – | decreased | stimulated luciferase activity |
